We go through one molecule from patent US20220411516A1.

For this experiment, the target named is EGFRvIII (Epidermal Growth Factor Receptor Variant III) (human) (UniProt P00533). Briefly: cell-based or functional assay.

B1: AMG 596 (bispecific antibody, part only; not given: CD3-binding domain; linkers, part only)
chain, part: QVQLVESGGGVVQSGRSLRLSCAASGFTFRNYGMHWVRQAPGKCLEWVAVIWYDGSDKYYADSVRGRFTISRDNSKNTLYLQMNSLRAEDTAVYYCARDGYDILTGNPRDFDYWGQGTLVTVSSDTVMTQTPLSSHVTLGQPASISCRSSQSLVHSDGNTYLSWLQQRPGQPPRLLIYRISRRFSGVPDRFSGSGAGTDFTLEISRVEAEDVGVYYCMQSTHVPRTFGCGTKVEIK
With B1, the EC20 (in vitro cytotoxic activity) came out at 0.07 ng/mL, the EC50 (in vitro cytotoxic activity) is 0.41 ng/mL and the EC90 (concentration found to produce 90% cytotoxic activity) came out at 1.8 ng/mL.
